One substance from patent US20230028899A1 can be followed below.

The experiment concerns the target CD19 on CD19+ Raji B cells (UniProt P15391). Put plainly: cell-based or functional assay.
Sequence of UniProt P15391 (P15391 20-556 limits assumed): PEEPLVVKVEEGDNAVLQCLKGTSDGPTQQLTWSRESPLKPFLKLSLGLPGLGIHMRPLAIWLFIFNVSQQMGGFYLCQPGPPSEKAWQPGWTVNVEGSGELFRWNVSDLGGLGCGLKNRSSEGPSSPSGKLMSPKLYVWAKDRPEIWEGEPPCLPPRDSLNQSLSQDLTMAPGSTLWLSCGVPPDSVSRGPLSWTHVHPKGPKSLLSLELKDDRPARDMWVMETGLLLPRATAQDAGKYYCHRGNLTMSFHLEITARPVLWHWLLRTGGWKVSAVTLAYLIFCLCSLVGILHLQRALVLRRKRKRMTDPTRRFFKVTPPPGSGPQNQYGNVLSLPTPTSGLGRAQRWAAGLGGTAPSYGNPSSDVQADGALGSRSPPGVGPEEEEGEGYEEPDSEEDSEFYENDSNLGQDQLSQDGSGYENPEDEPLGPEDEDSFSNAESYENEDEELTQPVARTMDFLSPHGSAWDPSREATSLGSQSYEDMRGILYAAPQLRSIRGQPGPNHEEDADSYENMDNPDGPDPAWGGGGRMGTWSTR

“anti-CD19 CAR (anti-CD19 CAR cassette as described in WO 2012/079000), expressed on transduced CD4+ T-cells” came in with a GFP fluorescence of transduced T-cells (GFP-RDE1, MinP), 24 h co-culture, flow cytometry of 6.5%; an activated cells in the population (CD25/CD69 staining), 24 h co-culture, GFP-RDE1 construct of 0.9 to 84.8%; an activated cells in the population (CD25/CD69 staining), 24 h co-culture, GFP-RDE2.1 construct of 3.9 to 12.1%; a fold change in IL-12 expression (ELISA), NFAT promoter, 3'-UTR not responsive to CAR stimulation of 50 fold. This substance displayed a fold change in IL-12 expression (ELISA), NFAT promoter, RDE1 (Gold1) of 168 fold; a fold change in IL-12 expression (ELISA), minP promoter, RDE1 (Gold1) of 6.3 fold; a fold increase in bioluminescence, MinP promoter, RDE1 of 4.1 fold; a fold increase in bioluminescence, MinP promoter, RDE2 of 1.8 fold. This substance gave a fold increase in bioluminescence, MinP promoter, RDE3 of 1.4 fold; a fold increase in bioluminescence, NFAT promoter, RDE1 of 8.5 fold; a fold increase in bioluminescence, NFAT promoter, RDE2 of 3.1 fold; a fold increase in bioluminescence, NFAT promoter, RDE3 of 1.3 fold.
